Reference: paper PMC12884786, “Evolution of Multivalent Aptamer Corona for High‐Throughput Multiplexed Detection of Multiple Cancers”

Legend:
Experiment in all cases: SPR; 5 mM Mg2+; SPR (Biacore 8K, CM5 chip, protein immobilized): DPBS with 5 mM Mg2+, 25 C; aptamer 0-1000 nM; pH not stated
Details in all cases: protein: commercial
serum amyloid A2 = target: T1, serum amyloid A2 (human, UniProt P0DJI9 19-122)
T1 sequence: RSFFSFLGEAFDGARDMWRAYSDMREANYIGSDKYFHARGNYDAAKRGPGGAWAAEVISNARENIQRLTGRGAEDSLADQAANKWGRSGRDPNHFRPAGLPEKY

[1] = target: complement C1q subcomponent subunit B (human, UniProt P02746 28-253)
Sequence of complement C1q subcomponent subunit B (P02746 28-253): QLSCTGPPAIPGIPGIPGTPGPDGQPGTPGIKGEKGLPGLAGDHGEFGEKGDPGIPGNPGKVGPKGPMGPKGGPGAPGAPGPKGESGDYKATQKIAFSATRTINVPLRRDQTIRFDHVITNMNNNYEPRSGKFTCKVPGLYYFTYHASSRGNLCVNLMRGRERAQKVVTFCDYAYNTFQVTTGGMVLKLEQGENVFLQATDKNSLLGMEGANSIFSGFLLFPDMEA

apolipoprotein C-III = apolipoprotein C-III (human, UniProt P02656 21-99)
Sequence of apolipoprotein C-III (P02656 21-99): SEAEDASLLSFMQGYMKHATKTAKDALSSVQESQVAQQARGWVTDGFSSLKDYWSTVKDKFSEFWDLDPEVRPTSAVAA

[2] = target: T2, vitamin K-dependent protein S (human, UniProt P07225 42-676)
T2 sequence: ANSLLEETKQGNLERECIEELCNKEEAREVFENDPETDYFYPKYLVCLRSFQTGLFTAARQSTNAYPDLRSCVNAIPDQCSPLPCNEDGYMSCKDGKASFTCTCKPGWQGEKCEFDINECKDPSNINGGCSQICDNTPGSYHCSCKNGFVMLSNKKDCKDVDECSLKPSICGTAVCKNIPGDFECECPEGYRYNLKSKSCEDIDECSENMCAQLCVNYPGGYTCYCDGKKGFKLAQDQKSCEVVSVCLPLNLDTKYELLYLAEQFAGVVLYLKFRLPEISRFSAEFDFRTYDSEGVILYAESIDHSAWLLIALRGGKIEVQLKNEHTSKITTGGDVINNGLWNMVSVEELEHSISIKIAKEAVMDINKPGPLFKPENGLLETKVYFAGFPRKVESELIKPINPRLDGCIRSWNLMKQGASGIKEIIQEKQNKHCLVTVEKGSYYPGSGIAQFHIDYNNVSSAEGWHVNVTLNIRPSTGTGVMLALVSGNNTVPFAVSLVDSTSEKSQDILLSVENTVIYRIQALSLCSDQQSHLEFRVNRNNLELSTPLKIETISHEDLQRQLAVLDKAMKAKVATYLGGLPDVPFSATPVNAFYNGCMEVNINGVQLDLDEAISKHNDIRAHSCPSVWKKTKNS

[3] = target: complement factor H-related protein 1 (human, UniProt Q03591 19-330)
Sequence of complement factor H-related protein 1 (Q03591 19-330): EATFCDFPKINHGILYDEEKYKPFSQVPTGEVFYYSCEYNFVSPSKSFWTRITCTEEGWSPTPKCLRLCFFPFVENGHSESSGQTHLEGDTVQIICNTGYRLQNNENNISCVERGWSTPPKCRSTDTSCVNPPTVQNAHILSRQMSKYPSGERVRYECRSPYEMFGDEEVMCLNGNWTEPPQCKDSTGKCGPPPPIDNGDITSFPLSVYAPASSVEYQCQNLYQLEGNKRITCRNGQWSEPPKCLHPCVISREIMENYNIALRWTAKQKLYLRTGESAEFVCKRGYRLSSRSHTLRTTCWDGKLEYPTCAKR

[4] = target: T3, histidine-rich glycoprotein (human, UniProt P04196 19-525)
T3 sequence: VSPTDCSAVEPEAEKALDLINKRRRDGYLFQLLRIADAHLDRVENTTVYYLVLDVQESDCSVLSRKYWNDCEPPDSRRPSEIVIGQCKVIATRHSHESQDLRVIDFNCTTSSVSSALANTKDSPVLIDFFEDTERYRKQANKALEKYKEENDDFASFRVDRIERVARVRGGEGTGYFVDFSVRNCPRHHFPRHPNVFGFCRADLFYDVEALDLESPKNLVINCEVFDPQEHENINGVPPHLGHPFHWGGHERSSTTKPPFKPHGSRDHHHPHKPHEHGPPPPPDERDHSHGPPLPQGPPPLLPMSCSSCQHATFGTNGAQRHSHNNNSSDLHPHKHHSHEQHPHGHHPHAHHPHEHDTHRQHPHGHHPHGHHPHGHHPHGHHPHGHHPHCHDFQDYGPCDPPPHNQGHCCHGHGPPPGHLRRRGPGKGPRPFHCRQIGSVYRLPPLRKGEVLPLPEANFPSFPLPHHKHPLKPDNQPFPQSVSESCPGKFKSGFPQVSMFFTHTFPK

B1: OV10 (ssDNA)
DNA: CAGCACCGTCAACTGAATGAGGTGGGAGGGAGGGGTTGACCTTGCGTGGTGATGCGATGGAGATGT
B1: binds (serum amyloid A2).

B2: OV2 (ssDNA)
DNA: CAGCACCGTCAACTGAATGTGGGTGGGTGGGTGGTAAGTTGTGCCGACGTGATGCGATGGAGATGT
B2: binds [1].

B3: CRC4 (ssDNA)
DNA: CAGCACCGTCAACTGAATGCTGAGGGCGGGTGGGTGGCACATTCGATGGTGATGCGATGGAGATGT
B3: binds (apolipoprotein C-III).

B4: CRC7 (ssDNA)
DNA: CAGCACCGTCAACTGAATCGGCGGGTGGGTGGGCGGAGATTTAACGTCGTGATGCGATGGAGATGT
B4: binds [2].

B5: CRC5 (ssDNA)
DNA: CAGCACCGTCAACTGAATCCTGCGGGCGGGTGGGTGGTTGGATTCTTGGTGATGCGATGGAGATGT
B5: binds [3].

B6: OV8 (ssDNA)
DNA: CAGCACCGTCAACTGAATGAGTCGCGGGTGGGTGGGTGGCCTTGCTCGGTGATGCGATGGAGATGT
B6: binds [4].
